Experimental data from patent publication US20200371101A1 (Regeneron, published 2020).
Like-named read-outs stand apart in the source and are kept apart here. Bridge positions count the residues as written; N and C are the ends. Square brackets hold non-standard residues; d marks the D form. Primed or numbered codes have the meaning given here. Ends that are not written are not given here. * marks the point of attachment. Biotin = O=C1N[C@H]2[C@H](CS[C@H]2CCCCC(=O)*)N1; PEG6′ = PEG linker with 6 ethylene glycol units; PEG8′ = PEG linker with 8 ethylene glycol units; Trp(1-Me) = Cn1cc(C[C@H](N)C(=O)O)c2ccccc21; Phe(4-F) = N[C@@H](Cc1ccc(F)cc1)C(=O)O; Me‑Phe = methyl phenylalanine; PEG3′ = not defined here; Ph‑Tyr = phenyl tyrosine; Pra = C#CC[C@H](N)C(=O)O; Az4 = not defined here; Inh = not defined here; Me‑Val = methyl valine

Key:
[1] = molecular target: T1, His-tagged IDO1 human recombinant protein (71182, BPS Biosciences) (human, UniProt P14902 2-403); assay: cell-based or functional assay
T1 sequence (P14902 2-403 limits assumed): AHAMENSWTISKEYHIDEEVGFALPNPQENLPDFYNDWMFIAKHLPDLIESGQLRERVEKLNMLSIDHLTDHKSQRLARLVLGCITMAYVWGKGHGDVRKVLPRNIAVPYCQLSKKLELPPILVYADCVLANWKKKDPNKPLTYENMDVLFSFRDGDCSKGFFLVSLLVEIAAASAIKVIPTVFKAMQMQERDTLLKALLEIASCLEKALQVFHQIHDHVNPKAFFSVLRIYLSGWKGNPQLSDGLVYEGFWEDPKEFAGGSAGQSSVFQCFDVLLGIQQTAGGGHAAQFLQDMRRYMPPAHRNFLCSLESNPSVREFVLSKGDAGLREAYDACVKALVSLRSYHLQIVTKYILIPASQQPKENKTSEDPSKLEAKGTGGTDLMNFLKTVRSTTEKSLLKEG

[2] = molecular target: T1, His-tagged IDO1 human recombinant …; assay: cell-based or functional assay; remark: listed apart in the source
[3] = molecular target: T1, His-tagged IDO1 human recombinant …; assay: ELISA: biotin-PEG3 macrocycle on NeutrAvidin plate, His-tagged human IDO1 titrated, AP-conjugated anti-6XHis antibody, fluorescence
[4] = molecular target: T1, His-tagged IDO1 human recombinant …; assay: ELISA: biotinylated peptide on NeutrAvidin plate, 6xHis-tagged human IDO1 titrated
Procedure: The plate was aspirated and then washed with Wash Buffer (0.05% (v/v) Tween-20 in PBS, 6×). His-tagged IDO1 human recombinant protein (71182, BPS Biosciences) was serially diluted in Wash Buffer (from 200 to 0 nM) and incubated in the designated microwells for 1 h at room temperature. […] (ab49746, Abcam) was prepared at 1:10,000 dilution and added to the microwells for 1 h at room temperature. The plate was aspirated and washed with Wash Buffer (5×). AttoPhos® AP Fluorescent Substrate System (S1000, Promega) was employed to develop the microwells. Using an excitation wavelength of 430 nm, fluorescent emission at 535 nm was recorded by Beckman Coulter DTX880 photometer.

[5] = molecular target: T1, His-tagged IDO1 human recombinant …; assay: binding affinity, assay not named
[6] = molecular target: T1, His-tagged IDO1 human recombinant …; assay: cell-based or functional assay; remark: listed apart in the source
[7] = molecular target: IDO1 in HeLa cells stimulated with IFNγ (UniProt P14902 1-403, limits assumed); assay: cell-based or functional assay
Chain of IDO1 in HeLa cells stimulated with IFNγ (P14902 whole entry): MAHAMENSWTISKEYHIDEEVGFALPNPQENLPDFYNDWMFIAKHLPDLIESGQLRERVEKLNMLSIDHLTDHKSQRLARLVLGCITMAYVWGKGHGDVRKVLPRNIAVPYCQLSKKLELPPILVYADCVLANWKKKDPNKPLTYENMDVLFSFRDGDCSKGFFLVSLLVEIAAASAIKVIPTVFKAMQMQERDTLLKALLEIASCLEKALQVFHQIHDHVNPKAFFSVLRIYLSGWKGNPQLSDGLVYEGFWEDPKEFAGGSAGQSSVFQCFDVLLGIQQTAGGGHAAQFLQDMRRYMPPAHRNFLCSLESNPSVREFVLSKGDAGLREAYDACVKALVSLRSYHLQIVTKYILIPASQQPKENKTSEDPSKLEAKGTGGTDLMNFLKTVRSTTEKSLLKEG

B1: Inh-PEG4-wyry (other)
peptide: [Pra][dW][dY][dR][dY]-Az4
modifications: triazole N-C; numbers in words are those of the source; reading uncertain; also: small molecule Inh joined via PEG4 linker, attachment point not given here
IC50, IDO1 inhibition assay [1]: 0.871 µM

B2: Deprotected-Inh-Gly2-wyvay (other)
peptide: Inh-GG[dW][dY][dV][dA][dY]
modifications: triazole (positions not given here); not fully specified (residue 2, C-terminus); printed as Deprotected-Inh-Gly2-wyvay; reading uncertain; also: IDO1 inhibitor Inh on the Gly2 linker, ring closed by triazole between flanking Pra and Az4
IC50, IDO1 inhibition assay [2]: 1.01 µM

{Biotin-PEG3′}-[dW]-[dW]-[Phe(4-F)] (triazole (positions not given here); also: triazole-cyclised) [ww(F-Phe)]
EC50 [3]: 0.096 µM

B3: (F-Phe)n(Me-Trp)(Me-Trp)w macrocycle (peptide)
peptide: [Pra][Phe(4-F)][dN][Trp(1-Me)][Trp(1-Me)][dW]-Az4
modifications: triazole N-C; reading uncertain; also: biotinylated for ELISA, site not given here, printed as (F-Phe)n(Me-Trp)(Me-Trp)w
EC50 [4]: 0.1 µM

[dW][Ph‑Tyr][Me‑Val]G[Me‑Phe] (not fully specified; printed as w(Ph-Tyr)(Me-Val)G(Me-Phe), Modified version of wyvay) [w(Ph-Tyr)(Me-Val)G(Me-Phe)]
EC50 [5]: 0.018 µM

B4: Inh-PEG6-wyry (other)
peptide: {Inh-PEG6′}-[Pra][dW][dY][dR][dY]-Az4
modifications: triazole N-C; numbers in words are those of the source; reading uncertain; also: Inh joined through PEG6 linker, printed as Inh-PEG6-wyry
IC50, IDO1 inhibition assay [1]: 0.338 µM | Inhibition Recombinant IDO1 IC50 [6]: 0.338 µM | % inhibition at 8 µM, HeLa [7]: 47.8%

B5: Inh-PEG8-wyry (other)
peptide: {Inh-PEG8′}-[Pra][dW][dY][dR][dY]-Az4
modifications: triazole N-C; numbers in words are those of the source; reading uncertain; also: Inh joined through PEG8 linker, printed as Inh-PEG8-wyry
IC50, IDO1 inhibition assay [1]: 3.75 µM
